Changes are numbered by the printed parent chain. Names and notes keep the numbering of the source.

A short description of series [1]: KARI enzyme KM assay with NADH, purified enzymes. The format is biochemical, Slackia exigua. The note with it: for Vmax: 0.1 mg/mL of enzyme. As for the experimental part: (§1) In this example, three different KARI Gen6 variant enzymes (v1, v48, and v65) and parent enzyme Se1_NKR_gen 6 were screened for their activity with NADH as cofactor. The enzymes were expressed E. coli, and resulting transformants were cultivated in shake flask fermentations as described below and samples were taken after 44h, centrifuged at 4000×g for 10 mins at 4° C. and the cell pellets were stored at −80° C. until analysis. The pellets were lysed by bead beating and the lysates were analyzed by KARI activity assay as described below using NADH and NADPH as cofactors.
(§2) KARI Enzyme Assay: The assay and no substrate control reactions were performed in triplicate for each sample. For the KM assay, the reaction samples comprised 100 mM potassium phosphate, pH 6.8 or 7, 10 mM MgCl2, 1 mM DTT, 200 μM NADH, 0-10 mM 2-acetolactate, and 0.1 mg/mL of enzyme. For the Ki assay, the reaction samples comprised 100 mM potassium phosphate, pH 6.8 or 7, 10 mM MgCl2, 1 mM DTT, 200 μM NADH, 1 mM 2-acetolactate, 0-40 mM R-DHIV, and 0.1 mg/mL of enzyme. For the no substrate controls, the 2-acetolactate was substituted with water. 10 μL of each lysate were transferred into a 96 well half area assay plate. The reaction was started with 90 μL of reaction buffer to each well using a multichannel pipette. The samples were mixed immediately. The samples were read at 340 nm every 10 seconds for 5 minutes.
(§3) The purified enzymes encoded by Se1_NKR_Gen6 (Se1), Se1_NKR_v1 (v1), Se1_NKR_v48 (v48), and Se1_NKR_v65 (v65) under two conditions: 33° C. at pH 6.8 and 30° C. at pH 7 were characterized.

Series [2] in a line: KARI enzyme Ki assay (product inhibition) with NADH, purified enzymes. The format is biochemical, Slackia exigua. The note with it: for catalytic efficiency using KM apparent = KM*(1+[product]/Ki), compared to Se1_NKR: 1 mM DHIV; for IC50 / Ki: 1 mM 2-acetolactate, 0-40 mM R-DHIV; for catalytic efficiency (KM apparent) versus increasing concentrations of DHIV (FIG. 14A-B): both conditions (33° C., pH 6.8 and 30° C., pH 7.0). As for the experimental part:
as §1, §2, §3
In order to determine the impact of all three parameters (kcat, KM, and Ki) to more closely determine the impact of the new variants in vivo, the catalytic efficiency for each enzyme using the KM apparent, which is equal to KM*(1+[product]/Ki), was calculated. […] At this DHIV concentration level, in vivo, at 33° C., pH 6.8, m48 would be 157%, Se1_NKR_v1 would be 139%, and Se1_NKR_v65 would be 118% improved compared to Se1_NKR. For example, in vivo, cells expressing Se1_NKR-v48, it would be expected that 16 fewer copies of the enzyme could potentially achieve 36% less protein while achieving 0.35 g/g yeast efficiency.

In a further series the test system is Isobutanol Production. Description: Simple shake flask fermentation, final relative isobutanol concentration. The format is cell-based. The note with it: enzyme on vector; for Isobutanol Concentration relative to Se1_NKR control (WT): final concentration. The text has this:
This improvement in isobutanol production is expected to increase with multiple copies of the Se1_NKR_v1 variant enzyme incorporated into the host cell genome.

A short description of series [3]: Kinetic parameters of Se1_NKR and Se2_NKR for acetolactate, as set in the model. The format is biochemical. The note with it: parameter set in the model. The source says:
(§4) Where nNKR is the number of copies of NKR integrated into the yeast genome, kcatis the first order rate constant, AL is the cytosolic concentration of acetolactate, Km is the Michaelis constant for acetolactate, DHIV is the concentration of DHIV, and KiDHIV is the inhibition constant for DHIV. […] This also assumes that all copies of NKR are expressed equally regardless of promotor or where it is integrated in the genome.

Series [4] can be described thus: DHIV inhibition constant of Se1_NKR and Se2_NKR, as set in the model. The format is biochemical. The note with it: parameter set in the model; read-out: KiDHIV.
From the text: as §4

B1: V1: Se1_NKR Gen6 variant with mutations M77I, V91I, K290A, Q330N as printed in Table 5; e.g. SEQ ID NO: 90 (protein, listed as Slackia exigua)
chain: MSVKTKEKEMAVTILYEQDVDPKVIQGLKVGIIGYGSQGHAHALNLMDSGVDVRVGLREGDSDWKTAEEAGLKVTDIDTAAEEADVIMVLIPDEVQPKVYQEHIAAHLKAGNTLAFAHGFNIHYGYIVPPEDVNVIMCAPKGPGHIVRRQFTEGSGVPDLACVQQDATGNAWDIVLSYCWGVGGARSGIIKATFAEETEEDLFGEQAVLCGGLVELVKAGFETLTEAGYPPELAYFECYHEMKMIVDLMYESGIHFMNYSISNTAEYGEYYAGPKVINEQSREAMKEILARIQDGSFAQEFVDDCNNGHKRLLEQREAINTHPIETTGARIRSMFSWIKKEDLEHHHHHH
modifications: SITE 1..350 Se1_NKR_v1 protein
For the molecule B1, in series [1] (30° C., pH 7), the Kcat came out at 555 s⁻¹; the Km (commonly the concentration of substrate that gives half-maximal velocity) was determined as 566 µM; the Vmax (in general, the rate approached at saturating substrate) is 1.63 mM/s. Further, in series [1] (33° C., pH 6.8), the Kcat amounted to 491 s⁻¹, the Km amounted to 407 µM and the Vmax stood at 1.45 mM/s. In addition, in series [1] (generally, under the two conditions), the “KM for acetolactate, comparison of the variants” value is recorded as “best (lowest)”. Besides, in series [2] (33° C., pH 6.8), the “catalytic efficiency using KM apparent = KM*(1+[product]/Ki), compared to Se1_NKR” value was 139%; the IC50 (as a rule, the concentration needed to halve the response being measured) is 2880 µM; the Ki came out at 834 µM. Besides, in series [2] (30° C., pH 7), inhibition was half-maximal at 2300 µM (IC50) and the Ki amounted to 832 µM. Besides, the “catalytic efficiency (KM apparent) versus increasing concentrations of DHIV (FIG. 14A-B)” value in series [2] is “decreasing catalytic efficiencies”. Besides, in the series on Isobutanol Production, the “isobutanol concentration compared with the WT enzyme, in words” value was “significantly more isobutanol than the WT enzyme” and the “Isobutanol Concentration relative to Se1_NKR control (WT)” value was 105%.

B2: V65: Se1_NKR Gen6 variant with mutations G31A, V91I, Q330N as printed in Table 5; e.g. SEQ ID NO: 94 (protein, listed as Slackia exigua)
chain: B1 chain with G31A, I77M, A290K
modifications: SITE 1..350 Se1_NKR_v65 protein
In the case of B2, in series [1] (30° C., pH 7), the Kcat was determined as 602 s⁻¹, the Km came out at 673 µM and the Vmax came out at 1.77 mM/s. Also, in series [1] (33° C., pH 6.8), the Kcat turned out to be 538 s⁻¹, the Km turned out to be 510 µM and the Vmax was 1.58 mM/s. Moreover, in series [2] (33° C., pH 6.8), the “catalytic efficiency using KM apparent = KM*(1+[product]/Ki), compared to Se1_NKR” value was determined as 118%; the IC50 was determined as 2370 µM; the Ki amounted to 801 µM. In series [2] (30° C., pH 7), this molecule had an IC50 of 2040 µM and a Ki of 821 µM. Further, the “catalytic efficiency (KM apparent) versus increasing concentrations of DHIV (FIG. 14A-B)” value in series [2] is listed as “decreasing catalytic efficiencies”. In the series with Isobutanol Production, the “Isobutanol Concentration relative to Se1_NKR control (WT)” value amounted to 103%.

B3: Se1_NKR: NADH-dependent ketol-acid reductoisomerase from Slackia exigua (S. exigua KARI, SEQ ID NO: 2); parent enzyme of the variants (protein, listed as Slackia exigua)
chain: MSVKTKEKEMAVTILYEQDVDPKVIQGLKVGIIGYGSQGHAHALNLMDSGVDVRVGLREGSSSWKTAEEAGLKVTDMDTAAEEADVIMVLVPDEIQPKVYQEHIAAHLKAGNTLAFAHGFNIHYGYIVPPEDVNVIMCAPKGPGHIVRRQFTEGSGVPDLACVQQDATGNAWDIVLSYCWGVGGARSGIIKATFAEETEEDLFGEQAVLCGGLVELVKAGFETLTEAGYPPELAYFECYHEMKMIVDLMYESGIHFMNYSISNTAEYGEYYAGPKVINEQSREAMKEILKRIQDGSFAQEFVDDCNNGHKRLLEQREAINTHPIETTGAQIRSMFSWIKKED
Turning to B3, the Kcat in series [3] came to 2.6 s⁻¹; in series [1] (30° C., pH 7) it was 442 s⁻¹; in series [1] (33° C., pH 6.8) it was 382 s⁻¹. The Km in series [3] was determined as 430 µM; in series [1] (30° C., pH 7) it was 711 µM; in series [1] (33° C., pH 6.8) it was 419 µM. The Ki in series [4] is 1100 µM; in series [2] (30° C., pH 7) it was 752 µM; in series [2] (33° C., pH 6.8), 768 µM. For the same molecule, the Vmax in series [1] (30° C., pH 7) was 1.30 mM/s; in series [1] (33° C., pH 6.8) it was 1.12 mM/s. Besides, the IC50 in series [2] (30° C., pH 7) was 1810 µM; in series [2] (33° C., pH 6.8), 2600 µM. Further, the “Isobutanol Concentration relative to Se1_NKR control (WT)” value in the series with Isobutanol Production is recorded as 100%.
